From patent US20180016324A1 (Regeneron, published 2018) come the findings set out here.

For orientation: EC50 means the midpoint of the concentration-response curve. A higher EC50 goes with a less potent agent. Usually Kd stands for the free concentration of one partner at which half of the binding sites on the other are occupied at equilibrium, for simple one-to-one binding. By koff is commonly meant a measure of how fast the partners let go of each other. In general, kon refers to the rate constant with which the complex forms. A word on the t½: it is the time needed for the level to fall by half in the phase considered. Higher therefore signals slow decline.

For assay [1], the target named is T1, ZIKV prM/E polyprotein on virus-like particles (VLPs) from HEK293T/17 cells (Zika virus, UniProt A0A024B7W1 123-795).
T1 construct: also called ZIKV prM/E VLPs; Zika prM/E VLPs
Briefly: MSD ECL, VLPs on plate.

Assay [2] deals with T2, ZIKV (prM80E) with a C-terminal myc-myc-hexahistidine tag (Zika virus, UniProt A0A024B7W1 104-694).
T2 construct: also called ZIKV (prM80E)-mmH; ZIKV-mmH
Briefly: SPR, mAb captured, 37C. On the technique in general: In SPR one partner is held on a chip, and binding of the other changes the refractive index at the surface.

Assay [3] concerns the target T2, ZIKV (prM80E) with a C-terminal …. Briefly: SPR, mAb captured, 37C. This is another data set of the same source.
Assay [4] shares this target. The experiment in a line: SPR, mAb captured, 25C.
The target is the same in assay [5]. Briefly: SPR, mAb captured, 37C. The source holds these as a separate data set.
For assay [6], the target named is ZIKV envelope glycoprotein (E) of strain MR766 (Uganda 1947) (Zika virus, UniProt Q32ZE1 291-790). Briefly: cell-based or functional assay.
The target of assay [7] is ZIKV envelope glycoprotein (E) of strain PRVABC59 (Puerto Rico 2015) (Zika virus). Briefly: cell-based or functional assay.
Assay [8] addresses ZIKV envelope glycoprotein (E) of strain FLR (Colombia 2015) (Zika virus). The experiment in a line: cell-based or functional assay.
For assay [9], the target named is T2, ZIKV (prM80E) with a C-terminal …. The experiment in a line: SPR, mAb captured, 37C, pH 7.4.
For assay [10], the target named is ZIKV E protein with escape mutations T311I and K369E (Zika virus). Briefly: cell-based or functional assay.
For assay [11], the target named is T2, ZIKV (prM80E) with a C-terminal …. The experiment in a line: SPR, mAb captured, 37C, pH 6.0 chase.
The target is the same in assay [12]. Briefly: SPR, mAb captured, 37C, pH 5.0 chase.
Assay [13] shares this target. The experiment in a line: SPR, mAb captured, 37C, pH 5.5 chase.

B1: H4H25703N (antibody, V domains shown)
VH: QVQLVESGGGVVQPGRSLRLSCAASGFTFNYYGMHWVRQAPGKGLEWVAVISYDGTNKYYADSVKGRFTTSRDNSKNTLYLQMNSLRAEDTALYYCARDRGGRFDYWGQGIQVTVSS
VL: EIVLTQSPDTLSLSPGERATLSCRASQSVSSNYLAWYQQKPGQAPRLLIYGASSRATGIPDRFSGSGSGTDFTLTISRLEPEDFAVYYCQRYGTSPLTFGGGTKVEIKR
For B1, the response in assay [1] was half-maximal at 0.0846 nM (EC50). In addition, the “t½ pH 7.4/t½ pH 6.0” value in assay [2] was 1.3. For the same molecule, the “t½ pH 7.4/t½ pH 5.0” value in assay [3] came out at 1.3. The “t½ pH 7.4/t½ pH 5.5” value in assay [3] is 1.5. Moreover, the Kd in assay [4] is 0.542 nM; in assay [5] it was 2.39 nM. Also, the koff in [4] was 0.000307 s⁻¹; in assay [5] it was 0.00177 s⁻¹; in [9], 0.00211 s⁻¹; in assay [11], 0.00283 s⁻¹; in assay [12] it was 0.0028 s⁻¹; in [13], 0.00326 s⁻¹. For the same molecule, the figures for the kon in assay [4] and in [5] were 566000 M⁻¹ s⁻¹ and 738000 M⁻¹ s⁻¹, respectively. The t½ turned out to be 37.6 min in assay [4]; 6.5 min in assay [5]; 5.47 min in assay [9]; 4.08 min in assay [11]; 4.1 min in assay [12]; 3.54 min in assay [13]. Moreover, the “neutralization IC50, Vero cells” value came out at 0.0445 nM in assay [6], 0.251 nM in assay [7] and 0.0619 nM in assay [8]. Besides, the “IC50 (read off the curve)” value in assay [10] was about 1 nM.
